Experimental findings from US20220402995A1 (TOSOH, published 2022) are described below.

The labels stand for the following.
B1: AAV-binding protein No. 78 (AVR2 + Leu328Pro, Ile366Phe) (receptor)
chain: MGSAGESVQITLPKNEVQPNAYVLQEPPKGETCTYDWQLITHPRDYSGEMEGKHSQFLKLSKLTPGLYEFKVIVEGQNAHSEGYVNVTVKPEPRKNRPPIAIVSPQFQEISLPTTSTVIDGSQSTDDDKIVQYHWEELKGPLREEKISEDTAILKLSKLVPGNYTFSLTVVDSDGATNSTTANLTVNKAVDHHHHHH
B2: AAV-binding protein No. 79 (AVR2 + Lys338Asn, Asn487Asp) (receptor)
chain: MGSAGESVQITLPKNEVQLNAYVLQEPPNGETCTYDWQLITHPRDYSGEMEGKHSQILKLSKLTPGLYEFKVIVEGQNAHSEGYVNVTVKPEPRKNRPPIAIVSPQFQEISLPTTSTVIDGSQSTDDDKIVQYHWEELKGPLREEKISEDTAILKLSKLVPGNYTFSLTVVDSDGATDSTTANLTVNKAVDHHHHHH
B3: AAV-binding protein No. 83 (AVR2 + Ile319Ser, Thr320Ile, Lys399Glu) (receptor)
chain: MGSAGESVQSILPKNEVQLNAYVLQEPPKGETCTYDWQLITHPRDYSGEMEGKHSQILKLSKLTPGLYEFKVIVEGQNAHSEGYVNVTVEPEPRKNRPPIAIVSPQFQEISLPTTSTVIDGSQSTDDDKIVQYHWEELKGPLREEKISEDTAILKLSKLVPGNYTFSLTVVDSDGATNSTTANLTVNKAVDHHHHHH
B4: AAV-binding protein No. 82 (AVR2 + Ser476Arg, Thr490Ser) (receptor)
chain: MGSAGESVQITLPKNEVQLNAYVLQEPPKGETCTYDWQLITHPRDYSGEMEGKHSQILKLSKLTPGLYEFKVIVEGQNAHSEGYVNVTVKPEPRKNRPPIAIVSPQFQEISLPTTSTVIDGSQSTDDDKIVQYHWEELKGPLREEKISEDTAILKLSKLVPGNYTFRLTVVDSDGATNSTSANLTVNKAVDHHHHHH
B5: AAV-binding protein No. 81 (AVR2 + Phe379Ser, Ser476Gly) (receptor)
chain: MGSAGESVQITLPKNEVQLNAYVLQEPPKGETCTYDWQLITHPRDYSGEMEGKHSQILKLSKLTPGLYESKVIVEGQNAHSEGYVNVTVKPEPRKNRPPIAIVSPQFQEISLPTTSTVIDGSQSTDDDKIVQYHWEELKGPLREEKISEDTAILKLSKLVPGNYTFGLTVVDSDGATNSTTANLTVNKAVDHHHHHH
B6: AAV-binding protein No. 84 (AVR2 + Pro336Gln, Gln386Arg, Asn487Asp) (receptor)
chain: MGSAGESVQITLPKNEVQLNAYVLQEQPKGETCTYDWQLITHPRDYSGEMEGKHSQILKLSKLTPGLYEFKVIVEGRNAHSEGYVNVTVKPEPRKNRPPIAIVSPQFQEISLPTTSTVIDGSQSTDDDKIVQYHWEELKGPLREEKISEDTAILKLSKLVPGNYTFSLTVVDSDGATDSTTANLTVNKAVDHHHHHH
B7: AAV-binding protein No. 80 (AVR2 + Gln365Arg, Gly392Cys) (receptor)
chain: MGSAGESVQITLPKNEVQLNAYVLQEPPKGETCTYDWQLITHPRDYSGEMEGKHSRILKLSKLTPGLYEFKVIVEGQNAHSECYVNVTVKPEPRKNRPPIAIVSPQFQEISLPTTSTVIDGSQSTDDDKIVQYHWEELKGPLREEKISEDTAILKLSKLVPGNYTFSLTVVDSDGATNSTTANLTVNKAVDHHHHHH
B8: AAV-binding protein No. 92 (AVR5e + Thr320Ala, Val381Asp) (receptor)
chain: MGSAGESVQIALPKNEVQLNAYVLQEPPKGETCTYDWQLITHPRDYSGEMEGKHSQILKLSKLTPGLYEFKDIVEGQNAHSEGYVNVTVEPEPRKNRPPIAIVSPQFQEISLPTTSTVIDGSQSTDDDKIVQYHWEELKGPLREEKISEDTAILKLSKLVPGNYTFRLTVVDSDGATDSTTANLTVNKAVDHHHHHH
B9: AAV-binding protein No. 89 (AVR5e + Glu378Gly) (receptor)
chain: MGSAGESVQITLPKNEVQLNAYVLQEPPKGETCTYDWQLITHPRDYSGEMEGKHSQILKLSKLTPGLYGFKVIVEGQNAHSEGYVNVTVEPEPRKNRPPIAIVSPQFQEISLPTTSTVIDGSQSTDDDKIVQYHWEELKGPLREEKISEDTAILKLSKLVPGNYTFRLTVVDSDGATDSTTANLTVNKAVDHHHHHH
B10: AAV-binding protein No. 88 (AVR5e + Leu376Pro) (receptor)
chain: MGSAGESVQITLPKNEVQLNAYVLQEPPKGETCTYDWQLITHPRDYSGEMEGKHSQILKLSKLTPGPYEFKVIVEGQNAHSEGYVNVTVEPEPRKNRPPIAIVSPQFQEISLPTTSTVIDGSQSTDDDKIVQYHWEELKGPLREEKISEDTAILKLSKLVPGNYTFRLTVVDSDGATDSTTANLTVNKAVDHHHHHH
B11: AAV-binding protein No. 85 (AVR5e + Val317Asp) (receptor)
chain: MGSAGESDQITLPKNEVQLNAYVLQEPPKGETCTYDWQLITHPRDYSGEMEGKHSQILKLSKLTPGLYEFKVIVEGQNAHSEGYVNVTVEPEPRKNRPPIAIVSPQFQEISLPTTSTVIDGSQSTDDDKIVQYHWEELKGPLREEKISEDTAILKLSKLVPGNYTFRLTVVDSDGATDSTTANLTVNKAVDHHHHHH
B12: AAV-binding protein No. 87 (AVR5e + Lys371Asn) (receptor)
chain: MGSAGESVQITLPKNEVQLNAYVLQEPPKGETCTYDWQLITHPRDYSGEMEGKHSQILKLSNLTPGLYEFKVIVEGQNAHSEGYVNVTVEPEPRKNRPPIAIVSPQFQEISLPTTSTVIDGSQSTDDDKIVQYHWEELKGPLREEKISEDTAILKLSKLVPGNYTFRLTVVDSDGATDSTTANLTVNKAVDHHHHHH
B13: AAV-binding protein No. 96 (AVR5e + Val326Glu, Phe379Ser) (receptor)
chain: MGSAGESVQITLPKNEEQLNAYVLQEPPKGETCTYDWQLITHPRDYSGEMEGKHSQILKLSKLTPGLYESKVIVEGQNAHSEGYVNVTVEPEPRKNRPPIAIVSPQFQEISLPTTSTVIDGSQSTDDDKIVQYHWEELKGPLREEKISEDTAILKLSKLVPGNYTFRLTVVDSDGATDSTTANLTVNKAVDHHHHHH
B14: AAV-binding protein No. 94 (AVR5e + Val326Glu, Asn329His) (receptor)
chain: MGSAGESVQITLPKNEEQLHAYVLQEPPKGETCTYDWQLITHPRDYSGEMEGKHSQILKLSKLTPGLYEFKVIVEGQNAHSEGYVNVTVEPEPRKNRPPIAIVSPQFQEISLPTTSTVIDGSQSTDDDKIVQYHWEELKGPLREEKISEDTAILKLSKLVPGNYTFRLTVVDSDGATDSTTANLTVNKAVDHHHHHH
B15: AAV-binding protein No. 95 (AVR5e + Val326Ala, Lys362Glu) (receptor)
chain: MGSAGESVQITLPKNEAQLNAYVLQEPPKGETCTYDWQLITHPRDYSGEMEGEHSQILKLSKLTPGLYEFKVIVEGQNAHSEGYVNVTVEPEPRKNRPPIAIVSPQFQEISLPTTSTVIDGSQSTDDDKIVQYHWEELKGPLREEKISEDTAILKLSKLVPGNYTFRLTVVDSDGATDSTTANLTVNKAVDHHHHHH
B16: AAV-binding protein No. 90 (AVR5e + Gly392Cys) (receptor)
chain: MGSAGESVQITLPKNEVQLNAYVLQEPPKGETCTYDWQLITHPRDYSGEMEGKHSQILKLSKLTPGLYEFKVIVEGQNAHSECYVNVTVEPEPRKNRPPIAIVSPQFQEISLPTTSTVIDGSQSTDDDKIVQYHWEELKGPLREEKISEDTAILKLSKLVPGNYTFRLTVVDSDGATDSTTANLTVNKAVDHHHHHH
B17: AAV-binding protein No. 86 (AVR5e + Lys371Glu) (receptor)
chain: MGSAGESVQITLPKNEVQLNAYVLQEPPKGETCTYDWQLITHPRDYSGEMEGKHSQILKLSELTPGLYEFKVIVEGQNAHSEGYVNVTVEPEPRKNRPPIAIVSPQFQEISLPTTSTVIDGSQSTDDDKIVQYHWEELKGPLREEKISEDTAILKLSKLVPGNYTFRLTVVDSDGATDSTTANLTVNKAVDHHHHHH

One assay deals with T1, VLP2 (virus-like particles of AAV2) (AAV2, UniProt P03135 1-735; P03135 1-598; P03135 1-533).
T1 construct: Empty AAV2 capsid; background says about 60 protein molecules, VP1:VP2:VP3 = 1:1:10; Immobilised on the ELISA plate
T1 sequence (P03135 whole entry, chain 1 of 3): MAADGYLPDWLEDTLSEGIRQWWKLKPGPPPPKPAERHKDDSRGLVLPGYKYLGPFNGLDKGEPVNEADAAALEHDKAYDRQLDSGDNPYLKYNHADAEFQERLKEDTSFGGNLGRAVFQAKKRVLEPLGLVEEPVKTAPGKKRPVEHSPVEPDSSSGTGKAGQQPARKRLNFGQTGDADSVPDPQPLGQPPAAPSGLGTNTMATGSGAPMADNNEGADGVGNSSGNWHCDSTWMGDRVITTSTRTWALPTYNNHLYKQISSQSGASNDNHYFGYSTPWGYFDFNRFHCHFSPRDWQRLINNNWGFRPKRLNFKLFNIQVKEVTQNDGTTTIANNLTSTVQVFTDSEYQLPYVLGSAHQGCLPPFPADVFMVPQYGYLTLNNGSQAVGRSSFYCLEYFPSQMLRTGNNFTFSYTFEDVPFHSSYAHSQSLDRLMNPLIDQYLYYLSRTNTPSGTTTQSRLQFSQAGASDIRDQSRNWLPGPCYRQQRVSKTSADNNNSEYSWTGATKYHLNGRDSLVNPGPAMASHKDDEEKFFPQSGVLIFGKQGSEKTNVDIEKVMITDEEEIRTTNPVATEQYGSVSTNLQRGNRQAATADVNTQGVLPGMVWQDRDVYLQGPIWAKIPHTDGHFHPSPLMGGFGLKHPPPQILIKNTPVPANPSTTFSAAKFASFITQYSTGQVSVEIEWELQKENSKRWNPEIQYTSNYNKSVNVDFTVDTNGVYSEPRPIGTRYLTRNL
T1 sequence (P03135 139-735, tags left off, chain 2 of 3): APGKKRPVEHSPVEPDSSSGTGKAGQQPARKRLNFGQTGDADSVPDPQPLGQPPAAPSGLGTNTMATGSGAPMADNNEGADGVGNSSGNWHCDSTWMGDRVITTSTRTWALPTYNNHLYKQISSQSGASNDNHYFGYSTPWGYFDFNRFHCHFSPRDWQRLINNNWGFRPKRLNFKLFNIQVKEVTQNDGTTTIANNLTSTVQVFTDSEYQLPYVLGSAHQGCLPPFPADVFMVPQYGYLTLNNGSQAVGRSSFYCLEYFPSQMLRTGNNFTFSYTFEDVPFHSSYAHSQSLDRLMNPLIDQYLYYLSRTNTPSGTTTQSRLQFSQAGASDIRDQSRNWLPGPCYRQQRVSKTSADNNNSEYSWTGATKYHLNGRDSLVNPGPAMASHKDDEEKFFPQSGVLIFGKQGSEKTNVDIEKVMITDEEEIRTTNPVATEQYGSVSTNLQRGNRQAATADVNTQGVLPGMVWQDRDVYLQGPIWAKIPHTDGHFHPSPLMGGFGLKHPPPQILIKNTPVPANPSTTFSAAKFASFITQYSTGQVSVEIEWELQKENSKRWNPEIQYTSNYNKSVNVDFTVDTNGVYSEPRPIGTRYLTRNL
T1 sequence (P03135 203-735, chain 3 of 3): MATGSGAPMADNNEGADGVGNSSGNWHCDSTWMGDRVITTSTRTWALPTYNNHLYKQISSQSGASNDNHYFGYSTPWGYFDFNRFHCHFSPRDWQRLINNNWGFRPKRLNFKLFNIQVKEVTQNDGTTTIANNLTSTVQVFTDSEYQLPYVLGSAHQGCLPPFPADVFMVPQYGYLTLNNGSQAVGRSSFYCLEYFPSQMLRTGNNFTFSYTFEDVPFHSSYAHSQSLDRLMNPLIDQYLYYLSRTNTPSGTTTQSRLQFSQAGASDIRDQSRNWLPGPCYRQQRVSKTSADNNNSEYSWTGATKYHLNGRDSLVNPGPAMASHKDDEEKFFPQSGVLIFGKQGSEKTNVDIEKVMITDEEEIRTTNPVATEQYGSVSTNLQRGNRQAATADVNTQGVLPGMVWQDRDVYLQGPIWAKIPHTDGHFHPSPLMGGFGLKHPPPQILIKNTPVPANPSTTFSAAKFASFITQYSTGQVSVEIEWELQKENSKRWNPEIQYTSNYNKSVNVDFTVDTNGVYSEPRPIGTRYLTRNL
Put plainly: ELISA on VLP2; binding after pH 3.0 51.1°C 15 min / untreated.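 Note: binding of the heat-treated AAV-binding protein to VLP2, expressed as a percentage of the binding of the same protein without heating.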 For orientation: In an ELISA, binding on a coated surface is turned into a signal by an enzyme label.
Description: (§1) The residual activity was calculated by dividing the binding activity of AAV-binding protein to VLP2 when the heat treatment was performed by the binding activity of AAV-binding protein to VLP2 when the heat treatment was not performed.
B1: the “Residual activity [%]” value came out at 55.9%.
Consider B2, for which the “Residual activity [%]” value turned out to be 73.1%.
B3: the “Residual activity [%]” value was 70.2%.
For B4, the “Residual activity [%]” value was 70.6%.
For B5, the “Residual activity [%]” value was found to be 66.3%.
As for B6, the “Residual activity [%]” value is 48.4%.
The same measure, in the same setting: as for B7, the figure is 49.9%.

In another assay the target is T1, VLP2 (virus-like particles of AAV2). Put plainly: ELISA on VLP2; binding after pH 3.0 61.0°C 15 min / untreated.
Description: (3) The culture solution of (2) was centrifuged, and the obtained culture supernatant was diluted 32-fold with ultrapure water. The diluted culture solution in an amount of 60 μL and 60 μL of 0.1 M glycine hydrochloric acid buffer (pH 3.0) were mixed, and heat treatment and acid treatment were performed at 61.0° C. for 15 minutes.
as §1
For the molecule B8, the “Residual activity [%]” value came to 52.4%.
Still for that read-out and setting: under B9 stands 46.1%; under B10, 41.7%; under B11, 50.2%.
B12: the “Residual activity [%]” value was 56.5%.
On to B13, for which the “Residual activity [%]” value was 60.9%.
B14: the “Residual activity [%]” value came out at 44.9%.
On the same count and under the same terms, under B15 stands 45.3%; under B16, 53.3%; under B17, 41.6%.
